Laboratory results: US20140087995A1 (published 2014)
Numbered stars: 1 amine (or outer) side, 2 acyl side, 3 side chain; on linkers, the order of the positions; unused ones are H or OH. Bridge positions count the residues as written; N and C are the ends. Side chains are listed from the residue outwards. Ends that are not written are not given here. * marks the point of attachment. C20 diacid = O=C(O)CCCCCCCCCCCCCCCCCCC(=O)*; γGlu = O=C(O)[C@H](CCC(=O)[*:2])N[*:1]

B1: N^ε1-[(4S)-4-carboxy-4-[[(4S)-4-carboxy-4-(19-carboxynonadecanoylamino)butanoyl]amino]butanoyl]-[Asp14,Arg17,Pro21,Pro27,Arg35]-h-amylin (peptide)
peptide: K([γGlu-γGlu-C20 diacid])CNTATCATQRLADFLRHSSPNFGAIPSSTNVGSRTY-NH2
modifications: disulfide 2-7; N-terminus assumed
SMILES: CC[C@H](C)[C@H](NC(=O)[C@H](C)NC(=O)CNC(=O)[C@H](Cc1ccccc1)NC(=O)[C@H](CC(N)=O)NC(=O)[C@@H]1CCCN1C(=O)[C@H](CO)NC(=O)[C@H](CO)NC(=O)[C@H](Cc1c[nH]cn1)NC(=O)[C@H](CCCNC(=N)N)NC(=O)[C@H](CC(C)C)NC(=O)[C@H](Cc1ccccc1)NC(=O)[C@H](CC(=O)O)NC(=O)[C@H](C)NC(=O)[C@H](CC(C)C)NC(=O)[C@H](CCCNC(=N)N)NC(=O)[C@H](CCC(N)=O)NC(=O)[C@@H](NC(=O)[C@H](C)NC(=O)[C@@H]1CSSC[C@H](NC(=O)[C@@H](N)CCCCNC(=O)CC[C@H](NC(=O)CC[C@H](NC(=O)CCCCCCCCCCCCCCCCCCC(=O)O)C(=O)O)C(=O)O)C(=O)N[C@@H](CC(N)=O)C(=O)N[C@@H]([C@@H](C)O)C(=O)N[C@@H](C)C(=O)N[C@@H]([C@@H](C)O)C(=O)N1)[C@@H](C)O)C(=O)N1CCC[C@H]1C(=O)N[C@@H](CO)C(=O)N[C@@H](CO)C(=O)N[C@H](C(=O)N[C@@H](CC(N)=O)C(=O)N[C@H](C(=O)NCC(=O)N[C@@H](CO)C(=O)N[C@@H](CCCNC(=N)N)C(=O)N[C@H](C(=O)N[C@@H](Cc1ccc(O)cc1)C(N)=O)[C@@H](C)O)C(C)C)[C@@H](C)O
notes: analogue of human amylin; also called compound 52
B2: N^ε1-[(4S)-4-carboxy-4-[[(4S)-4-carboxy-4-(19-carboxynonadecanoylamino)butanoyl]amino]butanoyl]-[Asp14,Arg17,Pro21,Pro27,Asp35]-h-amylin (peptide)
peptide: K([γGlu-γGlu-C20 diacid])CNTATCATQRLADFLRHSSPNFGAIPSSTNVGSDTY-NH2
modifications: disulfide 2-7; N-terminus assumed
SMILES: CC[C@H](C)[C@H](NC(=O)[C@H](C)NC(=O)CNC(=O)[C@H](Cc1ccccc1)NC(=O)[C@H](CC(N)=O)NC(=O)[C@@H]1CCCN1C(=O)[C@H](CO)NC(=O)[C@H](CO)NC(=O)[C@H](Cc1c[nH]cn1)NC(=O)[C@H](CCCNC(=N)N)NC(=O)[C@H](CC(C)C)NC(=O)[C@H](Cc1ccccc1)NC(=O)[C@H](CC(=O)O)NC(=O)[C@H](C)NC(=O)[C@H](CC(C)C)NC(=O)[C@H](CCCNC(=N)N)NC(=O)[C@H](CCC(N)=O)NC(=O)[C@@H](NC(=O)[C@H](C)NC(=O)[C@@H]1CSSC[C@H](NC(=O)[C@@H](N)CCCCNC(=O)CC[C@H](NC(=O)CC[C@H](NC(=O)CCCCCCCCCCCCCCCCCCC(=O)O)C(=O)O)C(=O)O)C(=O)N[C@@H](CC(N)=O)C(=O)N[C@@H]([C@@H](C)O)C(=O)N[C@@H](C)C(=O)N[C@@H]([C@@H](C)O)C(=O)N1)[C@@H](C)O)C(=O)N1CCC[C@H]1C(=O)N[C@@H](CO)C(=O)N[C@@H](CO)C(=O)N[C@H](C(=O)N[C@@H](CC(N)=O)C(=O)N[C@H](C(=O)NCC(=O)N[C@@H](CO)C(=O)N[C@@H](CC(=O)O)C(=O)N[C@H](C(=O)N[C@@H](Cc1ccc(O)cc1)C(N)=O)[C@@H](C)O)C(C)C)[C@@H](C)O
notes: analogue of human amylin; also called compound 2

Molecular target: T1, human calcitonin receptor (human, UniProt P30988 25-474)
T1 sequence (looked up): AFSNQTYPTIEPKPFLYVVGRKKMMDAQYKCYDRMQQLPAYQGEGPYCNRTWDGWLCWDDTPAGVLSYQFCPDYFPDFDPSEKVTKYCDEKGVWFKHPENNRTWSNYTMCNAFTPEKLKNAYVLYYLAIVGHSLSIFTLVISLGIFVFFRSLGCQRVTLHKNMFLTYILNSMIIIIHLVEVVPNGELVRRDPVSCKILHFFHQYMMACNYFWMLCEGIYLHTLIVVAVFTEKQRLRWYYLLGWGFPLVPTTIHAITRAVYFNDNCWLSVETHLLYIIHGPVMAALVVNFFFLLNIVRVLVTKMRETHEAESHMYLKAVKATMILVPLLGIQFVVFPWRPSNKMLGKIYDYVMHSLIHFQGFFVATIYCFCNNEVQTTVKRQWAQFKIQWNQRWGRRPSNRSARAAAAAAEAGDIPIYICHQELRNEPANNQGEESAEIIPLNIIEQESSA
Assay: cell-based or functional assay

Binder | hCTR funct. EC50 [nM]
B1 | 14.1
B2 | 3
